Results published in PMC4835703.

Key:
MD2-GFP [1] = target: MD2-GFP (UniProt Q9Y6Y9); assay: MST; secreted MD2-GFP in the culture supernatant of transfected 293 cells grown in suspension; CnB titrated in 16 1:1 dilutions
[2] = target: CD14-GFP (full-length membrane-anchored CD14 from transfected HEK293 lysates) (UniProt P08571); assay: MST; GFP-tagged receptors in lysates of transfected HEK293 cells (RIPA buffer), diluted according to fluorescence intensity; CnB titrated in 16 1:1 dilutions; 25 °C
[3] = target: TLR4-GFP (full-length TLR4 from transfected HEK293 lysates) (UniProt O00206); assay: as above
MD2-GFP [4] = target: MD2-GFP (UniProt Q9Y6Y9); assay: as above

Sequence of recombinant calcineurin B (P63098 whole entry): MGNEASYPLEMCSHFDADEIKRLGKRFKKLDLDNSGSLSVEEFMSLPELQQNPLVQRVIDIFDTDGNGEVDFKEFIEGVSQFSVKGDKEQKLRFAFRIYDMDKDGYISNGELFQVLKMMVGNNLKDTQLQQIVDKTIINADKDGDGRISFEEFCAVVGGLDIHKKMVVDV
Sequence of MD2-GFP (Q9Y6Y9 19-160): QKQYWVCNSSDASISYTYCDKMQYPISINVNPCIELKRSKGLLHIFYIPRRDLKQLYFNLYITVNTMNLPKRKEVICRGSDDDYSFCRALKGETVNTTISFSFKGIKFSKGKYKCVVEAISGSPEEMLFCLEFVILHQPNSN
Sequence of CD14-GFP (full-length membrane-anchored CD14 from transfected HEK293 lysates) (P08571 20-367): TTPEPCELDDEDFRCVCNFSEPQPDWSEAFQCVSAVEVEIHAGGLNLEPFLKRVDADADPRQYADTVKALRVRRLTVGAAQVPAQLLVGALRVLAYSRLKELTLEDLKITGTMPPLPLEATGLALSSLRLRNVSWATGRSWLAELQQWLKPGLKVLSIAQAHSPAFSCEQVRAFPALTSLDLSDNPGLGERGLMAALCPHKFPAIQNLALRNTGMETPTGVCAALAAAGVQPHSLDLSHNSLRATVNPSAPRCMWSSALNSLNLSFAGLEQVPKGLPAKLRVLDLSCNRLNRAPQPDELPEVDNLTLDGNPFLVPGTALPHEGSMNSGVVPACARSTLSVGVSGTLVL
Sequence of TLR4-GFP (full-length TLR4 from transfected HEK293 lysates) (O00206 24-839): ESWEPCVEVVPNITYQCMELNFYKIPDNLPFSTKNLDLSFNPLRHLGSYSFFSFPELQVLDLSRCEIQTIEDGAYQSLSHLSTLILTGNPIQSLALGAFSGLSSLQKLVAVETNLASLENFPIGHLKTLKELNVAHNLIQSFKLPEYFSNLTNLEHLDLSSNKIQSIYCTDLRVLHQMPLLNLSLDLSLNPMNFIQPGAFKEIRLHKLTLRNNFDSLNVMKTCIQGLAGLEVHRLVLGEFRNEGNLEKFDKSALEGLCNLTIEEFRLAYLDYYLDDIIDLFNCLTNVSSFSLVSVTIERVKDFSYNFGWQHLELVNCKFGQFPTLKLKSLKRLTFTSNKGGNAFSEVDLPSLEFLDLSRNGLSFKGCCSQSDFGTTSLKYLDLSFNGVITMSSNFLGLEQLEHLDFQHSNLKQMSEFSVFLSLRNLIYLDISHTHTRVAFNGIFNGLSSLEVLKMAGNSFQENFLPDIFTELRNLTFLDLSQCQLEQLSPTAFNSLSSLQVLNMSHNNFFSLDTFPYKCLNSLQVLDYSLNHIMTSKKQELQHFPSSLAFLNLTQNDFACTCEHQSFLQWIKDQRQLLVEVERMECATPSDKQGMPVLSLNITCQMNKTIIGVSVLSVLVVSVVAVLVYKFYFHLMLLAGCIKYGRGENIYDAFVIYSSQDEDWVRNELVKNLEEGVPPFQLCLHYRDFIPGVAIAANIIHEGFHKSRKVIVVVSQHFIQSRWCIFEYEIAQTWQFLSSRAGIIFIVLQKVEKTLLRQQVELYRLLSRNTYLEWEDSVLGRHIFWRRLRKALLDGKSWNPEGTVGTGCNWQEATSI

Kd (MD2-GFP [1]): 74 µM
Kd [2]: 34.8 µM
Kd [3]: 6.5 µM
Kd (MD2-GFP [4]): 7.43 µM
Substance: recombinant calcineurin B (from UniProt P63098 1-170) (natural protein; other documents disagree on this pair)
